Reference: patent US20130316958A1 (University of Southern California, priority 2010, published 2013)
Non-standard residues stand in square brackets, D forms with d. No end group written: not given here.

Experiments:
Atg3 [1] = biological target: T1, Atg3 (Homo sapiens, UniProt Q9NT62); assay: GST pulldown of KSHV vFLIP α-helix fragments and deletion mutants; type: binding; details: GST fusions or deletion mutants in HEK293T
T1 construct: GFP (alternative construct GFP-Atg3, not on the same molecule as GST); expressed in transfected cells; host or cells: HEK293T
Source text: Due to the substantial similarities between DEDI and DED2, Atg3 bound each DED of KSHV vFLIP with a similar affinity. Structural analyses have shown that the DED1 and DED2 of KSHV vFLIP and MCV 159L contain six and five α-helixes, respectively. (Yang et al. (2005) Mol. Cell. 20:939-949); Bagneris et al. (2008) Mol. Cell. 30:620-631). To further define the Atg3 binding sequences, each DED of KSHV vFLIP was divided into small α-helix fragments based on the previous structural analysis and expressed as mammalian GST fusions. Truncated mutant constructs of KSHV-vFLIP and hATG3 were created by subcloning the PCR products of cDNA fragments containing each domain of the associated genes into pcDNA5/FRT/TO. HEK293T cells were transfected with mutant constructs for GST pulldown as described above, followed by immunoblotting with αV5. […] In contrast, vFLIP mutants carrying a loss of 14-3-3σ, IKKαβγ complex, or FADD interaction bound Atg3 and blocked rapamycin-induced autophagy as efficiently as wild-type vFLIP.

[2] = tested on: KSHV-infected TREX-BCBL-Vector cells; assay: GFP-LC3 puncta autophagy assessment after peptide treatment; type: cell-based; details: 30 or 50 μM peptide, 12 hr
Source text: (§1) The vFLIP α2 (10 aa) and α4 (12 aa) peptides that independently bound Atg3 at high efficiency were fused with the HIV-1 TAT protein transduction domain for intracellular delivery (Gump and Dowdy (2007) Trends Mol. Med. 13:443-448) and tested for their potential effects on autophagy induction. The K-α2 and K-α4 peptides contained KSHV vFLIP aa20-29 and aa128-139 regions, respectively, as retro-inverso versions to circumvent the proteolytic degradation. Mutant peptides K-α2m and K-α4m were also included, which replaced the hydrophobic core residues of the K-α2 (L21F22L23) and K-α4 (F130L-WVY139) peptides with alanines, as well as the C-α2 and C-α4 peptides containing the cFLIPs regions aa19-28 and aa128-139, respectively. At 12 hr post-transfection with GFP-LC3, KSHV-infected TREX-BCBL-Vector and TREX-BCBL-vFLIP cells were incubated with various concentrations of the peptides or rapamycin for an additional 12 hr, followed by an assessment of the GFP-LC3 puncta and cell death. […] Peptide-treated TREX-BCBL-Vector and TREX-BCBL-vFLIP cells were subjected to immunoblotting with αLC3 and aactin.

ALL cells = assay: Tumor cell viability by trypan blue exclusion, ALL cells; type: cell-based; details: BV-173 and SUP-B15, FIG. 5
Description: Tumor cells were treated with peptides at various concentrations for 12 hours and their viability measured by trypan blue exclusion, followed by analyses using the Beckman Coulter Z2 Particle Count and Size Analyzer (BC Z2 CS Analyzer). A minimum of 100 cells per sample using triplicate samples was counted per condition per experiment.

TREX-BCBL-Vector cells = assay: Cell death after overnight peptide incubation; type: cell-based; details: identical conditions, 30 or 50 μM
Source text: as §1

[3] = tested on: human Atg3 deletion mutants; assay: GST pulldown with Atg3 deletion mutants; type: binding; details: GST-Atg3, N-terminal and C-terminal regions
Source text: The overall structure of yeast Atg3 has a unique hammer-like shape with the N-terminal and C-terminal regions discretely responsible for Atg7 and Atg8 (equivalent to mammalian LC3) binding, respectively. (Yamada et al. (2007) J. Biol. Chem. 282:8036-8043). Based on the structure of yeast Atg3, human Atg3 deletion mutants fused with a GST mammalian expression vector were constructed: GST-Atg31-93, GST-Atg3193-268, GST-Atg3268-315, and GST-Atg3193-315-GST-tagged hATG3 and hATG3 mutant genes were cloned into a pcDNA5/FRT/TO derivative encoding an N-terminal GST epitope tag between the BamHI and NotI sites. GST pulldown with Flag-KSHV vFLIP, Flag-cFLIPs, Flag-MCV 159L, or Flag-HVS vFLIP along with GST-Atg3, GST-Atg3 N-terminal region (Nt), or GST-Atg3 C-terminal region (Ct) was performed as described above and was followed by immunoblotting with aFlag or aGST.

Atg3 [4] = biological target: T1, Atg3; assay: Co-immunoprecipitation of FLIP with Atg3 in HEK293T cells; type: binding; details: endogenously and exogenously expressed Atg3
Description: The ability of FLIP to bind to Atg3 was evaluated by co-immunoprecipitation assay. HEK293T cells were transfected with Flag-vFLIP and/or GFP-Atg3 or Flag-vFLIP and/or GST-Atg3, and at 48 hr post-transfection, cells were harvested and lysed in an NP40 buffer supplemented with complete protease inhibitor cocktail (Roche). After pre-clearing with protein A/G agarose beads for 1 hr at 4° C., whole-cell lysates were used for immunoprecipitation with αFlag, αGFP, or GST. Generally, 1-4 μg of the antibody was added to 1 ml of the cell lysate and incubated at 4° C. for 8 to 12 hr. The immunoprecipitates were then washed extensively with a lysis buffer and eluted by boiling them with an SDS loading buffer for 5 min. Following immunoprecipitation, samples were treated to immunoblot using αAtg3 (1:500) (Novus).

NIH3T3 cells = assay: GFP-LC3 autophagy with ectopic FLIP expression; type: cell-based; details: Hank's solution 4 hr or 2 μM rapamycin 3 hr
Description: At 12-16 hours post-transfection with GFP-LC3, NIH3T3 cells containing vector or the FLIP gene were treated with Hank's solution for 4 hr or with 2 μM rapamycin for 3 hr. Subsequently, GFP-LC3 was detected using an inverted fluorescence microscope, autophagy was quantified as means (±SD) of the combined results from three independent experiments, and autophagosomes were visualized through scanning electron microscopy. NIH3T3-Vector, NIH3T3-KSHV-vFLIP, and NIH3T3-MCV-159L cells were treated with Hank's solution for 4 hr, followed by immunoblotting with anti-LC3 and anti-βTubulin. At 12-16 hr post-transfection with GFP-LC3, TREX-BCBL-Vector and TREX-BCBL-vFLIP cells were treated with doxycycline for 24 hr, followed by incubation with 2 μM rapamycin for an additional 12 hr. The detection of GFP-LC3 and autophagy levels was performed as described above, vFLIP expression was detected by IB with anti-Flag, and autophagosomes were visualized by scanning EM. TNF-induced apoptosis and NF-κB luciferase assay were performed as previously described (Matta and Chaudhary (2004) Proc. Natl. Acad. Sci. USA 101:9399-9404).
The anti-autophagic properties of vFLIP, as well as the related cFLIP, HSV, and MCV, were evaluated by ectopic expression of HVS, vFLIP, MCV 159L, and the short form of cFLIP (cFLIPs) in NIHI3T3 cells. DNA fragments corresponding to the coding sequences of the KSHV-vFLIP, human cFLIPs, MCV-MC159, and HVS-vFLIP genes were amplified via polymerase chain reaction and subcloned into pcDNA5/FRT/TO between the AflII and BamHI restriction sites or pEF-IRES-puro between the AflII and XbaI sites. Starvation studies were carried out by transfecting cells containing vector or the FLIP gene with GFP-LC3, then 12-16 h post-transfection, treating the cells with Hank's solution for 4 hr or with 2 μM rapamycin for 3 hr. Autophagy was assessed by GFP-LC3 redistribution using an inverted fluorescence microscope, quantifying autophagy as means (±SD) of the combined results from three independent experiments. Autophagosomes were visualized through scanning electron microscopy. […]

[5] = biological target: T2, Atg3 (human Atg3, E2-like enzyme of the LC3 conjugation system) (human, UniProt Q9NT62 1-314); assay: co-immunoprecipitation from HEK293T cells
T2 construct: also called hATG3; GFP-Atg3

NF-κB = NF-κB luciferase reporter assay; type: cell-based; details: NIH3T3 cells, 48 hr post-transfection
Source text: To determine the effects of the interactions of vFLIP with FADD, IKKαβγ, and 14-3-3σ on anti-autophagy activity, NIH3T3 cells stably expressing various vFLIP mutants were constructed: m14-3-3σ, which lacks 14-3-3σ-binding; mTRAF2, which lacks TRAF2-binding (Guasparri et al. (2006) EMBO Rep. 7:114-119); 67AAA and 58AAA, which have reduced NF-κB activation (Matta and Chaudhary (2004) Proc. Natl. Acad. Sci. USA 101:9399-9404); and mFADD, which lacks FADD-binding (Yang et al. (2005) Mol. Cell. 20:939-949). These cells were treated with either cyclohexamide (CHX) alone or CHX and TNF-α for 12 hr or with 2 μM rapamycin for 3 hr. Propidium iodide (PI) staining and flow cytometry analysis were performed to determine apoptosis levels. Alternatively, NIH3T3 cells containing vector, KSHV vFLIP, or its mutants were transfected with an NF-κB-luciferase reporter construct and a control renilla luciferase plasmid, pRL-SV40 (Promega). At 48 hr post-transfection, luciferase activity was measured with a luminometer using a dual luciferase assay kit (Promega) and normalized with renilla luciferase activity to determine transfection efficiency. GFP-LC3 puncta were detected using an inverted fluorescence microscope and the autophagy levels quantified as means (±SD) of the results from three independent experiments.

[6] = biological target: T2, Atg3 (human Atg3, E2-like enzyme of the …); assay: binding of Atg3 to the separate DEDs of vFLIP; method not detailed

T2 sequence (Q9NT62 whole entry): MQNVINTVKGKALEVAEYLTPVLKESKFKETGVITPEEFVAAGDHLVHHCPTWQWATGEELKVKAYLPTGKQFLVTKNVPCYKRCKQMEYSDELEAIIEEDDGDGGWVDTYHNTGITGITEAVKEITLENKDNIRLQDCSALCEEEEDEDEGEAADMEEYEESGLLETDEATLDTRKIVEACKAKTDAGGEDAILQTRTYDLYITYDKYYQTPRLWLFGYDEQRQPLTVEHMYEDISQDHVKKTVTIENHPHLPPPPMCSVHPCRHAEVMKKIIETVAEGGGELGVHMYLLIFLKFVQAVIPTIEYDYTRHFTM
T1 sequence (Q9NT62 whole entry, the tested form may be a part): as the sequence (Q9NT62 whole entry) above

QTFLHWVYCMEN [DED2 α4 helix]
Atg3 binding (GST pulldown) (Atg3 [1]): individually sufficient for Atg3 binding

RRRQRRKKRGY-G-NEMCAAAHAATQ [K-α4m]
autophagy induction (GFP-LC3 puncta) [2]: no increase in autophagy | anticancer activity in ALL cell lines (ALL cells): significant anticancer activities | cell death (in words) (TREX-BCBL-Vector cells): no increase in autophagy nor cell death

RRRQRRKKRGY-G-FVNLAAAVVE [K-α2m]
autophagy induction (GFP-LC3 puncta) [2]: no increase in autophagy | cell death (in words) (TREX-BCBL-Vector cells): no increase in autophagy nor cell death

EVVLFLLNVF (also: GST fusion) [DED1α2 helix, α2 region of KSHV vFLIP aa 20-29, tested as mammalian GST fusion]
Atg3 binding (GST pulldown) (Atg3 [1]): individually sufficient for Atg3 binding

RRRQRRKKRGY-G ([dR][dR][dR][dQ][dR][dR][dK][dK][dR]G[dY]G; not fully specified; printed as RRRQRRKKRGY-G) [HIV-1 TAT only, HIV-1 TAT protein transduction domain alone, reference compound]
autophagy induction (GFP-LC3 puncta) [2]: no increase in autophagy | cell death (in words) (TREX-BCBL-Vector cells): no increase in autophagy nor cell death

B1: MCV 159L (MCV vFLIP) (other)
chain: MSDSKEVPSLPFLRHLLEELDSHEDSLLLFLCHDAAPGCTTVTQALCSLSQQRKLTLAALVEMLYVLQRMDLLKSRFGLSKEGAEQLLGTSFLTRYRKLMVCVGEELDSSELRALRLFACNLNPSLSTALSESSRFVELVLALENVGLVSPSSVSVLADMLRTLRRLDLCQQLVEYEQQEQARYRYCYAASPSLPVRTLRRGHGASEHEQLCMPVQESSDSPELLRTPVQESSSDSPEQTT
notes: also called MCV-MC159; MCV MC159
Atg3 region bound (GST pulldown) [3]: Atg3 binding patterns similar to KSHV vFLIP | interaction with Atg3 (co-immunoprecipitation) (Atg3 [4]): interacted with Atg3 as efficiently as KSHV-vFLIP | suppression of starvation- and rapamycin-induced autophagy (NIH3T3 cells): strongly suppressed starvation- and rapamycin-induced autophagy | binding result [5]: binds | NF-κB activation (NF-κB): did not carry out NF-κB activation

B2: HVS vFLIP (other)
chain: MDLKTTVLHITDSFTEEEMYCLLFLINGCIPRNCNAVKISDLIIETLSKSTQWDICLTQCLYVLRKIELLLNLFQVTKEDVKQSFFTQLQLETHVLTLVNVNNNLTAKDEKRLCFILDQFFPRNVVASSVILCVFSNMLCEMPVLECLCQLKKCLKQIGRSDLAKTV
notes: also called Flag-HVS vFLIP
Atg3 region bound (GST pulldown) [3]: Atg3 binding patterns similar to KSHV vFLIP | interaction with Atg3 (co-immunoprecipitation) (Atg3 [4]): interacted with Atg3 as efficiently as KSHV-vFLIP | suppression of starvation- and rapamycin-induced autophagy (NIH3T3 cells): strongly suppressed starvation- and rapamycin-induced autophagy | binding result [5]: binds

B3: KSHV vFLIP DED2 (other)
chain: FSPYQLTVLHVDGELCARDIRSLIFLSKDTIGSRSTPQTFLHWVYCMENLDLLGPTDVDALMSMLRSLSRVDLQRQVQTLMGLHLSGPSHSQHYRHTP
notes: also called DED2 of KSHV vFLIP
binding result [6]: binds

B4: KSHV vFLIP DED1 (other)
chain: MATYEVLCEVARKLGTDDREVVLFLLNVFIPQPTLAQLIGALRALKEEGRLTFPLLAECLFRAGRRDLLRDLLHLDPRFLERHLAGTMSY
notes: also called DED1 of KSHV vFLIP
binding result [6]: binds
